Read-outs that look alike come from different tables or passages of the source. Values belong to the substance of their own block, whether it stands above or below them. No end group written: not given here.
Columns and labels:
[1] = biological target: T1, Ric8A1–492 (Bos taurus, UniProt Q5E9J8); experiment: DSF: thermal stabilization of Ric8A1–492 by Gαt C-terminal peptides; type: binding, bovine
T1 construct: His6 (N); made in house; host or cells: E. coli BL21(DE3)
T1 sequence (Q5E9J8 1-492): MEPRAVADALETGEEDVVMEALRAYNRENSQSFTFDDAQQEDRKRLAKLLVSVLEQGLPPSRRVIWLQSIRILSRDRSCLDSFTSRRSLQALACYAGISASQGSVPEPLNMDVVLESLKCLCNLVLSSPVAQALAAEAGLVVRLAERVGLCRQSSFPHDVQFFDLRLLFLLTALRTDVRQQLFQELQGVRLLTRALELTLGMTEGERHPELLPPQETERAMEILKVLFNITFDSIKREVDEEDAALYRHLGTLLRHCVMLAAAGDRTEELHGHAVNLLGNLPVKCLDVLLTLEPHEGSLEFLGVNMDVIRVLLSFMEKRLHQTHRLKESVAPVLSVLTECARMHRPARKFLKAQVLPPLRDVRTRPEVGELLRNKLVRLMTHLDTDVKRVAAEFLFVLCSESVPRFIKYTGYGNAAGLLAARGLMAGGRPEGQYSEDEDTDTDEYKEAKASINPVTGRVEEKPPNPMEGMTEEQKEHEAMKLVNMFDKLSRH
Procedure: Fig. 1 Interaction of Ric8A with the C-terminus of Gα. a Thermal denaturation, as determined by differential scanning fluorimetry (DSF), of 8.7 µM Ric8A1–492 in the absence (black) or presence of 50 µM Gαt340–350 (blue) or Gαt333–350 (red). RFU – relative fluorescence units. Average normalized curves are shown. The Tm values (°C) are shown as mean ± SD (n = 3). b Kinetics of association and dissociation for Ric8A1–492 and biotinylated Gαt333–350 coupled to a streptavidin biosensor as determined using BLI. Representative curves are shown.
Stabilities of Ric8A constructs with and without peptide ligands were assessed using differential scanning fluorimetry (DSF), in which an increase in fluorescence of the Sypro Orange dye is measured. Ric8A1–492, Ric8A1–452 and Ric8A1–426 in 20 mM Tris-HCl (pH 7.5) buffer containing 150 mM KCl, 5% glycerol, and 1 mM TCEP with and without peptide were used at a final concentration of 0.5 mg/ml and were supplemented with a 1000-fold dilution of Sypro Orange dye (Invitrogen). Temperature was increased at 1 °C/minute and fluorescence signals were recorded using real-time PCR (C1000 Touch thermal cycler, Bio Rad), with the cycler set to FRET mode and the excitation wavelength set at 450–490 nm and the emission wavelength at 560–580 nm.

[2] = biological target: T1, Ric8A1–492; experiment: BLI: biotinylated Gα C-terminal peptides (Gαt333–350, Gαs363–380, C1, C2) on streptavidin biosensor binding Ric8A1–492; design: species or system bovine; details: Octet RED96, N-terminally biotinylated peptide on streptavidin biosensor, 20 mM Tris, 150 mM KCl, 5% glycerol, 1 mM TCEP, 0.5 mg/ml BSA, pH 8.0, 26 °C, 1:1 binding model, mean ± SD, read-out: association constant (ka)
Procedure: An Octet RED96 system and streptavidin (SA)-coated biosensors (FortéBio, Menlo Park, CA) were used to measure association and dissociation kinetics for Gα peptides or the full-length Avi-tagged Gαt in relation to Ric8A1–492, Ric8A1–452, and Ric8A1–426. To obtain the Avi-tagged Gαt, Gαt was cloned into modified pET21a vector with the N-terminal His6-tag followed by the Avi tag and TEV cleavage site[59]. The Avi-tagged I340Q/N343H mutant of Gαt was prepared by QuikChange protocol. BL21(DE3) cells for expression of the Avi-tagged Gαt were grown in 2TY media supplemented with biotin (10 mg/liter), induced at OD600 of 0.6 with 50 µM IPTG and further grown overnight at 16 °C. Binding studies were performed in 20 mM Tris, 150 mM KCl, 5% glycerol, 1 mM TCEP, 0.5 mg/ml BSA, pH 8.0. […] For each concentration of Ric8A1–492, dissociation rate constant (kd) values were calculated from the corresponding dissociation phases of the curves. These kd values were used to calculate the association rate constant (ka) values from the association phases for each concentration according to the equation1 ka=kobserved-kd∕Ric8A1-492 The average ka and kd were calculated as means of the individual ka and kd values for all curves. Equilibrium dissociation constant KD was calculated as mean kd/mean ka. […]

[3] = biological target: T1, Ric8A1–492; experiment: SEC complex formation of Gαt C-terminal fusion proteins with Ric8A1–492; type: binding, bovine; details: size-exclusion chromatography elution profiles
From the text: The C-terminal 18-mer peptide of Gαi corresponding to Gαt333–350, was previously shown to bind to Ric8A[26]. To identify C-terminal constructs of Gα that are suitable for crystallization with Ric8A, we tested one in which the 11 C-terminal residues of Gαt were fused to the B1 domain of Streptococcal protein G (GB1-Gαt340–350) and a second in which the 24 C-terminal residues of Gαt were fused to MBP (MBP-Gαt327–350). For Ric8A, we used a construct that is truncated at the C-terminus (Ric8A1–492) and that had been reported to retain the full functionality of Ric8A[26].
MBP-Gαt327–350 was purified by Ni-NTA chromatography followed by SEC using a HiLoad 16/600 Superdex 200 pg column equilibrated with 20 mM Tris-HCl (pH 7.5) buffer containing 100 mM NaCl, 1 mM EDTA, and 2 mM TCEP. Ric8A1–492/MBP-Gαt327–350 complexes were prepared by mixing the proteins at a 1:1.5 molar ratio in 5 mM maltose and loading the mixture onto a HiLoad 16/600 Superdex 200 pg column equilibrated with 20 mM Tris-HCl (pH 7.5) buffer containing 150 mM KCl, 5% glycerol, and 1 mM TCEP.
75 KDa Peak 1 Peak 2 75 KDa Peak 1 Peak 2
Supplementary Figure 1. Ric8A1-492 forms complexes with GB1-tagged Gαt340-350 andMBP-taggedGαt333-350. […] (B) Peak fractions in A analyzed by SDS-PAGE. […] (D) Peak fractions in C analyzed by SDS-PAGE. […]

[4] = biological target: Ric8A; details: read-out: KD previously estimated; cited from earlier work
[5] = system: Ric8A1–452; experiment: DSF: thermal stabilization of Ric8A1–452 by Gαt333–350; type: binding, bovine; details: 9.1 µM Ric8A1–452, 50 µM peptide, mean ± SD
Procedure: Stabilities of Ric8A constructs with and without peptide ligands were assessed using differential scanning fluorimetry (DSF), in which an increase in fluorescence of the Sypro Orange dye is measured. […] Temperature was increased at 1 °C/minute and fluorescence signals were recorded using real-time PCR (C1000 Touch thermal cycler, Bio Rad), with the cycler set to FRET mode and the excitation wavelength set at 450–490 nm and the emission wavelength at 560–580 nm.

[6] = biological target: T1, Ric8A1–492; experiment: BLI: Avi-tagged I340Q/N343H mutant of Gαt binding Ric8A1–492; design: species or system bovine
Procedure: An Octet RED96 system and streptavidin (SA)-coated biosensors (FortéBio, Menlo Park, CA) were used to measure association and dissociation kinetics for Gα peptides or the full-length Avi-tagged Gαt in relation to Ric8A1–492, Ric8A1–452, and Ric8A1–426. To obtain the Avi-tagged Gαt, Gαt was cloned into modified pET21a vector with the N-terminal His6-tag followed by the Avi tag and TEV cleavage site[59]. The Avi-tagged I340Q/N343H mutant of Gαt was prepared by QuikChange protocol. BL21(DE3) cells for expression of the Avi-tagged Gαt were grown in 2TY media supplemented with biotin (10 mg/liter), induced at OD600 of 0.6 with 50 µM IPTG and further grown overnight at 16 °C. Binding studies were performed in 20 mM Tris, 150 mM KCl, 5% glycerol, 1 mM TCEP, 0.5 mg/ml BSA, pH 8.0. All steps were performed at 26 °C, with biosensors stirred into 0.2 ml of sample in each well at 1000 rpm, and at a data acquisition rate of 5.0 Hz. N-terminally biotinylated Gαt333–350, Gαs363–380, C1 peptide and C2 peptide were loaded onto SA sensors at a concentration of 0.05, 0.05, 0.005, and 0.01 mg/ml for 40–90 seconds. Data for association and dissociation phases of the assay were collected as shown in Fig. 1b and Supplementary Figs. 8, 11, 12, and 14. To correct for baseline drift and non-specific binding, reference sensors lacking bound Gα peptide were used in the BLI assays with Ric8A proteins at the highest concentrations. Kinetic data fitting was performed using FortéBio Data Analysis software 10.0. For each concentration of Ric8A1–492, dissociation rate constant (kd) values were calculated from the corresponding dissociation phases of the curves. These kd values were used to calculate the association rate constant (ka) values from the association phases for each concentration according to the equation1 ka=kobserved-kd∕Ric8A1-492 The average ka and kd were calculated as means of the individual ka and kd values for all curves. Equilibrium dissociation constant KD was calculated as mean kd/mean ka. Steady-state data fitting was performed using the GraphPad Prism 7 software with the equation for one site specific binding.
Supplementary Figure 13. (A) Kinetics of association and dissociation of Ric8A1-492 and the Avi-tagged I340Q/N343H mutant of Gαt coupled to a streptavidin biosensor as determined using BLI. Representative experiment is shown. (B) The steady-state binding curve. For experiments performed in […]
(1 picture or pasted object on this page, not shown here)

Substance: GB1-Gαt340–350: 11 C-terminal residues of Gαt fused to the B1 domain of Streptococcal protein G (IKENLKDCGLF; also: fused to GB1 (B1 domain of protein G), end not given here)
complex formation with Ric8A1–492 (in words) [3]: formed complexes with Ric8A1–492 at nearly 1:1 stoichiometry

Substance: Gα C-terminus: C-terminal 18-mer peptide of Gαi previously shown to bind to Ric8A (ref 26) (DAVTDVIIKNNLKDCGLF; UniProt P63096 337-354, looked up, fragment)
Kd [4]: 12 µM

Substance: MBP-Gαt327–350: 24 C-terminal residues of Gαt fused to MBP (NVKFVFDAVTDIIIKENLKDCGLF; not fully specified (N-terminus); also: N-terminal fusion to modified MBP via AAAH linker, His6 tag)
complex formation with Ric8A1–492 (in words) [3]: formed complexes with Ric8A1–492 at nearly 1:1 stoichiometry

More lines, main results first:

stabilization effect (Tm shift) on Ric8A1–492 [1]: ~ 9 °C | kon [2]: 130000 ± 3e+09 M⁻¹ s⁻¹
Substance: DAVTDIIIKENLKDCGLF [Gαt333–350]

Tm of Ric8A1–492 in the presence of peptide ([1]; 8.7 µM Ric8A1–492, 50 µM peptide, mean ± SD (n = 3)): 48.0 ± 0.3 °C | mean Tm of Ric8A1-492 + peptide ([1]; source data, mean of 3 replicates): 48 C | Tm (C ) of Ric8A1-492 + peptide ([1]; source data, replicate 1): 48.1 C | Tm (C ) of Ric8A1-492 + peptide ([1]; source data, replicate 2): 47.69 C | Tm (C ) of Ric8A1-492 + peptide ([1]; source data, replicate 3): 48.35 C
Substance: Gαt340–350: 11-mer C-terminal peptide of Gαt (IKENLKDCGLF)
Tm of Ric8A1–452 in the presence of peptide [5]: 55.75 °C

Kd ([6]; BLI steady state, Avi-tagged mutant on streptavidin biosensor, mean ± SD, n = 3 (triplicate), read-out: KD for Ric8A1–492): 2.3 ± 0.4 µM | Kd ([6]; BLI, representative experiment (Suppl. Fig. 13B), read-out: KD, steady-state binding curve): 2.6 µM | Kd ([6]; Suppl Fig 13B BLI steady state, replicate 1, read-out: KD uM (stady state)): 1.95 µM | Kd ([6]; Suppl Fig 13B BLI steady state, replicate 2, read-out: KD uM (stady state)): 2.3 µM | Kd ([6]; Suppl Fig 13B BLI steady state, replicate 3, read-out: KD uM (stady state)): 2.66 µM | decrease of affinity for Ric8A1–492 ([6]; relative to Gαt): about 100 fold
Substance: I340Q/N343H: Avi-tagged double I340Q/N343H mutant of full-length Gαt
